Measurements from PMC11677393 (International Journal of Molecular Sciences, 2024).

B1: GLI1(234–388) (domain or fragment, human, UniProt P08151 234-388, looked up)
chain: ETDCRWDGCSQEFDSQEQLVHHINSEHIHGERKEFVCHWGGCSRELRPFKAQYMLVVHMRRHTGEKPHKCTFEGCRKSYSRLENLKTHLRSHTGEKPYMCEHEGCSKAFSNASDRAKHQNRTHSNEKPYVCKLPGCTKRYTDPSSLRKHVKTVHG
notes: a few residues of the TEV site and linker may remain at the N-terminus (surmised); PDB 2GLI is the cited structure of GLI1 Zif1-5 with DNA; also called Zif truncation with 5 Zif motifs; Zif1-5; not shown: His6, N-terminal, cleaved; SUMO (yeast SMT3), N-terminal, cleaved
B2: Human GLI1 truncation containing zinc finger motif 1 and 2 (residue 234–302) (domain or fragment)
chain: ETDCRWDGCSQEFDSQEQLVHHINSEHIHGERKEFVCHWGGCSRELRPFKAQYMLVVHMRRHTGEKPHK
notes: TEV protease was used to remove His-SUMO; Two zinc ions per chain; also called GLI1 Zif1-2; source: E. coli Rosetta pLysS, purified (Ni-NTA, TEV cleavage, glutathione column, HiTrap Q HP, Superdex 75); not shown: His6, N-terminal, cleaved; SUMO (yeast SMT3), N-terminal, cleaved
B3: GLI1(234–326) (domain or fragment, human, UniProt P08151 234-326, looked up)
chain: ETDCRWDGCSQEFDSQEQLVHHINSEHIHGERKEFVCHWGGCSRELRPFKAQYMLVVHMRRHTGEKPHKCTFEGCRKSYSRLENLKTHLRSHT
notes: a few residues of the TEV site and linker may remain at the N-terminus (surmised); also called Zif truncation with 3 Zif motifs; not shown: His6, N-terminal, cleaved; SUMO (yeast SMT3), N-terminal, cleaved
B4: GLI1(234–358) (domain or fragment)
chain: not shown
notes: a few residues of the TEV site and linker may remain at the N-terminus (surmised); also called Zif truncation with 4 Zif motifs; not shown: His6, N-terminal, cleaved; SUMO (yeast SMT3), N-terminal, cleaved

Key:
[1] = target: the molecule itself; test: SEC; Superdex 75 during purification; 20 mM HEPES pH 7.6, 500 mM NaCl, 0.1 mM TCEP; elution compared with standard proteins
[2] = target: the molecule itself; test: crystal structure; apo GLI1(234–302), no DNA; sitting drop, 29–32% PEG3350, 0.1 M Bis-Tris pH 6.5; two molecules in the asymmetric unit, space group P65, 2.05 Å

| Protein | stoichiometry N [1] | binding result [2] |
| --- | --- | --- |
| B1 | 2 | – |
| B2 | – | binds |
| B3 | 2 | – |
| B4 | 2 | – |
